In general, stoichiometry N refers to the number of molecules, sites or subunits per partner or assembly.

The source of these data is PMC6377231, “Structure of a bacterial ATP synthase” (eLife, 2019).

Test in all cases: cryo-EM structure; intact Bacillus PS3 ATP synthase in GDN, three rotational states at 3.0, 3.0 and 3.2 Å; focused refinement of the membrane-embedded region at 3.3 Å
Series [1] concerns the molecule itself.
In series [2] the target is T1, Bacillus PS3 ATP synthase subunit α (Bacillus PS3, UniProt P09219 1-502).
T1 construct: ATP synthase subunit alpha of Bacillus PS3, expressed from plasmid pTR-ASDS (Suzuki et al., 2002); Three copies stand in the complex (α3β3γδε ab2c10); Residues in the model are in Supplementary file 1; also called αDP; source: E. coli strain DK8, plasmid pTR-ASDS; purified as part of the intact ATP synthase (GDN, HisTrap, Superose 6)
The conditions noted are these: both partners purified.

For series [3], the target named is T2, Bacillus PS3 ATP synthase subunit γ (Bacillus PS3, UniProt P09222 5-286).
T2 construct: ATP synthase subunit gamma of Bacillus PS3, expressed from plasmid pTR-ASDS (Suzuki et al., 2002); source: E. coli strain DK8, plasmid pTR-ASDS; purified as part of the intact ATP synthase (GDN, HisTrap, Superose 6)
The conditions noted are these: both partners purified.

T2 sequence (P09222 5-286): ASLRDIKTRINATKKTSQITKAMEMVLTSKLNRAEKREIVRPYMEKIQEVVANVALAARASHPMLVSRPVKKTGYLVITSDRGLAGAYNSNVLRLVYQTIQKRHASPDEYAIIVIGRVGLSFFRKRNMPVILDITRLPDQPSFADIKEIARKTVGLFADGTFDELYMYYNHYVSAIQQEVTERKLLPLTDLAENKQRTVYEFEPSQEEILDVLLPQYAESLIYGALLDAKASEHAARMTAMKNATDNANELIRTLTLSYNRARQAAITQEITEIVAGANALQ
T1 sequence (P09219 whole entry): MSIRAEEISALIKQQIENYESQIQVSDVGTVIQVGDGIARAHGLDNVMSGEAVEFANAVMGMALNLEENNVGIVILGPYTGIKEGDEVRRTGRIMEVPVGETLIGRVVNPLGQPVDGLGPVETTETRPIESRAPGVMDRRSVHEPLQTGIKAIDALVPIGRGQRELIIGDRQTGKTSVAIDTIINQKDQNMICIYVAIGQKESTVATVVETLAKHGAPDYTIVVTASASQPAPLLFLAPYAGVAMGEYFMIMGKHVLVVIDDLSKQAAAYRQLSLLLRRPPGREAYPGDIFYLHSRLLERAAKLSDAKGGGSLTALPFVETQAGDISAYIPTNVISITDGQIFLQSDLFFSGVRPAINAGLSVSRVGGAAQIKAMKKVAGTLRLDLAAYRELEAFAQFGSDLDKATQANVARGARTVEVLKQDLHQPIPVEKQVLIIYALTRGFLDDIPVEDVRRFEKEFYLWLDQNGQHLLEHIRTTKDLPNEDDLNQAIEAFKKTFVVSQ

B1: Bacillus PS3 ATP synthase subunit c (natural protein)
chain: MSLGVLAAAIAVGLGALGAGIGNGLIVSRTIEGIARQPELRPVLQTTMFIGVALVEALPIIGVVFSFIYLGR
notes: ATP synthase subunit c of Bacillus PS3, expressed from plasmid pTR-ASDS (Suzuki et al., 2002); Forms the ring of 10 c-subunits in the FO region; also called c-ring; c10-ring; source: E. coli strain DK8, plasmid pTR-ASDS; purified as part of the intact ATP synthase (GDN, HisTrap, Superose 6); copies: 10
On to B1, for which, in series [1], the “stoichiometry N” value amounted to 10.

B2: Bacillus PS3 ATP synthase subunit ε (natural protein, UniProt P07678 1-132, looked up)
chain: MKTIHVSVVTPDGPVYEDDVEMVSVKAKSGELGILPGHIPLVAPLEISAARLKKGGKTQYIAVSGGFLEVRPDNVTILAQAAERAEDIDVLRAKARKSGRTPLQSQQDDIDFKRAELALKRAMNRLSVAEMK
notes: ATP synthase subunit epsilon of Bacillus PS3, expressed from plasmid pTR-ASDS (Suzuki et al., 2002); source: E. coli strain DK8, plasmid pTR-ASDS; purified as part of the intact ATP synthase (GDN, HisTrap, Superose 6)
Take B2: the binding result in series [2] and in series [3] was “binds” in each case.
